Measurements taken from the nanobody polyreactivity screen of Harvey et al. (2022).

assay: yeast display, Sf9 membrane polyspecificity reagent, FACS + sequencing; frameworks hold sequencing errors
Method in brief: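 Polyreactivity labels are assigned by the sorting gate from which each nanobody was recovered. The gates were low and high (top ~1%), set on anti-HA fluorescence for expression and streptavidin fluorescence for reagent binding. Before sorting, galactose-induced (36–48 hours) yeast display cells were stained for 1 hour at 4 °C with 10% biotinylated, detergent-solubilized Sf9 membrane reagent.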

Row | Sequence | polyreactivity (PSR sort gate)
1 | QVQLVESGGGLVQAGGSLRLSCAASGLIFKYYAMGWYREAPGKERELVATITRGGGSTYYADSVKGRFTISRDNAKNTVYLQMNSLKPEDTAVYYCAADYWYVYPRYNPGDYWGQGTQVTVSS | high polyreactivity
2 | QVQLVESGGGLVQAGGSLRLSCAASGLIFLDYAMGWNRQAPWKERELVAAITGRGGSTYYADSVKGRFTISRDNAKNTVYLQMNSLKPDDTAVYDCAAQYSYPTPYRTYEYDYWGQGTQVTVSS | high polyreactivity
3 | QVQLVESGGGLVQAGGSLRLSCAASGLIFLEYAMGWYRQAPGKERELLAAISTSGGSTYYADSVKGRFTISRDNAKNTVYLQMNSLKPEDTAVYYCAAEPVYNYYFHDGDYWGQGTQVTVSS | low polyreactivity
4 | QVQLVESGGGLVQAGGSLRLSCAASGLIFLPYAMGWYRQAPGKERELVAAIRWSDDSTYYADSVKGRFTILRDNAKNTVYFQMNCLKPEDTAVYYCNAYVYRPSYIFNYYYEYDYWGQGTQVTVSS | high polyreactivity
5 | QVQLVESGGGLVQAGGSLRLSCAASGLIFLYYAMGWYRQAPGKERELVAAISRRGGSTYYADSVKGRFTISRDNAKNTVYLQMNSLKPEDTAVYYCAAKYESYPGGIWTYYYWGQGTQVTVSS | high polyreactivity
6 | QVQLVESGGGLVQAGGSLRLSCAASGLIFNLYAIGWNRQAPGKEREFVATITGIGGSTYYADSVKGRFTISRDNAMNTVYFQMNSLKPEDTAVYYCAADAWFLPYNYWGQGTQVTVSS | low polyreactivity
7 | QVQLVESGGGLVQAGGSLRLSCAASGLIFNLYAMGWYRQAPGKEREFVATITGIGGSTYYADSVKGRFTISRDNANNTVYLQMTSLKPEDTAVYYCAADAWFLPYNYWGQGTQVTVSS | low polyreactivity
8 | QVQLVESGGGLVQAGGSLRLSCAASGLIFPFYTMGWYRQAPGKERELVAAISYSGGSTYYADSVKGRFAISRDNAKNTVYLQMNSLKPEDTAVYYCAKSYRTTYHFWSGYDYWGQGTQVTVSS | low polyreactivity
9 | QVQLVESGGGLVQAGGSLRLSCAASGLIFPKNAMGWYRQAPGKERELVAAISSSDSSTYADSVKGRFTISRDNAKNTVYLQMNSLKPEDTAVYYCAAASYNWLDWVTREYWGQGTQVTVSS | low polyreactivity
10 | QVQLVESGGGLVQAGGSLRLSCAASGLIFPRNAMGWYRQAPGKERELVAVISRSGTSTYYADSVKGRFTISRDNAKNTVYLQMNSLKPEDTAVYYCAAAPSQVYRARFYYWGQGTQVTVSS | high polyreactivity
11 | QVQLVESGGGLVQAGGSLRLSCAASGLIFPSYTMGWYRQAPGKDRELVAAITFSGDSTNYADSVKGRFTISRDNAKNTVYLQMNSLKPEDTAVYNCAASQVSDTTRFGYWGQGTQVTVSS | low polyreactivity
12 | QVQLVESGGGLVQAGGSLRLSCAASGLIFPTNAMGWYRQAPGKERELVAAISSVGSTYYADSVKGRFTISRDNAKNTVYLQMNSLKPEDTAVYYCAADWTLDPSYGYYADDYWGQGTQVTVSS | low polyreactivity
13 | QVQLVESGGGLVQAGGSLRLSCAASGLIFPVYDMGWYRQAPGKERELVAAITRSGDSTYYADSVKGRFTISRDNAKNTVYLQMNSLKPEDTAVYYCAAQPGTASYAGDGDSWGQGTQVTVSS | low polyreactivity
14 | QVQLVESGGGLVQAGGSLRLSCAASGLIFPYYTMGWYRQAPGKEGELVAVINRGGSTSYADSVKGRFTISRDNAKNTFYLQMNSLKPEDTAVYYCAARKWRYYSHVIYDYWGQGTQVTVSS | high polyreactivity
15 | QVQLVESGGGLVQAGGSLRLSCAASGLIFPYYVMGWYRQAPGKERELVAAISVSGGNTYYADSVKGRFTISRDNAKNTVYLQMNSLKPEDTAVYYCAADHYRGSYDYWGQGTQVTVSS | high polyreactivity
16 | QVQLVESGGGLVQAGGSLRLSCAASGLIFPYYVMGWYRQAPGKERELVAAITWSGGRTYYADSVKGRFTISRDNAKNTVSLQMNSLKPEDTAVYYCAATYWTIDYWGQGTQVTVSS | low polyreactivity
17 | QVQLVESGGGLVQAGGSLRLSCAASGLIFRGNDMGWYRQAPGKERELVAGINSSGSTNYADSVKGRFTISRDNAKNTVYLHMNSLKPEDTAVYYCAARAIVSFDYCGQGTQVTVSS | low polyreactivity
18 | QVQLVESGGGLVQAGGSLRLSCAASGLIFRGYAMGWYIQAPGKERELVAAISKSGGSTYYADSVKGRFTISRDNAKNTVYLQMNSLKPEDTAVYYCNTDYDWKYFLSSQYDYWGQGTQVTVSS | high polyreactivity
19 | QVQLVESGGGLVQAGGSLRLSCAASGLIFRGYAMGWYRQAPGKERELVAAISSIAGSTYYADSVKGRFTISRDNAKNTVYLQMNSLKPEDTAVYYCAARSRWTFRDYYYWGQGTQVTVSS | high polyreactivity
20 | QVQLVESGGGLVQAGGSLRLSCAASGLIFRHYAMGWYRQAPGKERELVAAIDYSGGSTYYADSVKGRFTISRDNAKNSVYLQMNSLKPEDTAVYYCAADYFWLYYSEYGYWGQGTQVNVSS | low polyreactivity
21 | QVQLVESGGGLVQAGGSLRLSCAASGLIFRHYAMGWYRQAPGKERELVAAIDYSGGSTYYADSVKGRFTISRDNAKNTVYLQMNSQKPEDTAVYYCAADYFWMYYSEYGYWGQGTQVTVSS | low polyreactivity
22 | QVQLVESGGGLVQAGGSLRLSCAASGLIFRHYVMGWYRQAPGKETELVAAITSRGGTTYYADSVKGRFTISRDNAKNTVYIQMNSLKPEDTAVYYCNAVDIYPTRYEYDYWGQGTQVTVSS | high polyreactivity

Row | Sequence | polyreactivity (PSR sort gate)
23 | QVQLVESGGGLVQAGGSLRLSCAASGLIFRLYAMGWYRQAPGKERELVAALSISGGSTYYADSVKGRFTLSRDNAKNTVYLQMNSLKPEDTAVYYCAARYYRGGPYYKYDYWGQGTQVTVSS | high polyreactivity
24 | QVQLVESGGGLVQAGGSLRLSCAASGLIFRPYTMGWYRQAPGKERELVAAINFSGGNTYYADSVKGRFTISRDNAKNTVYLQMNSLKPEDTAVYYCATKSFYGYYYWPYGYWGQGTQVTVSS | low polyreactivity
25 | QVQLVESGGGLVQAGGSLRLSCAASGLIFRRYAMGWYIQAPGKEREFVAAIRYTGGGTYYADSVKGRFTISRDNAKNTVYLQMNRLKPEDTAVYYCNTVEYRWGYISKVPKYDYWGQGTQVTLSS | high polyreactivity
26 | QVQLVESGGGLVQAGGSLRLSCAASGLIFRRYAMGWYRQAPGKERELVAAITIGGSTSYADSVKGRFTISRDNAKNTVYLQMNSLKPEDTAVYYCAARWGALWYRPYDYWGQGTQVTVSS | high polyreactivity
27 | QVQLVESGGGLVQAGGSLRLSCAASGLIFRTYTMGWYRQAPGKERELVATITRRCGTTYYADSVKGRFTISRDNAKNTVYLQMNSLKPEDTAVYYFAKSPYYTWKYDYWGQGTQVTVSS | high polyreactivity
28 | QVQLVESGGGLVQAGGSLRLSCAASGLIFRWYAMGWYRQAPGKERELDAAISTSGGRTYYADSVKGRFTISRDNAKNTVYLQMNSLKPEDTAVYYCNAQHASWYTAYSVSFDYWGQGTQVTVSS | low polyreactivity
29 | QVQLVESGGGLVQAGGSLRLSCAASGLIFRWYAMGWYRQAPGKEREMVAAITSGGTTNYADSVTGRFTISRDNAKNTVYFQMNSLKPEHSAVYSCNAIVLSYSRYDYWGQGTQVTVSS | high polyreactivity
30 | QVQLVESGGGLVQAGGSLRLSCAASGLIFRYNAMGWSRQAPGKERELVAAISRSGGTTYYADSVKGRFTISRDNAKNTVYLQMNSLKPEDTAVYYCATRISQSYYNYGYWGQGTQVTVSS | high polyreactivity
31 | QVQLVESGGGLVQAGGSLRLSCAASGLIFRYYAKGWYRQAPGKERELFAAISLRGGSTYYADSVKGRFTISRDNAKNNVYLQMNSLKPEDTAVYYCAAQWASFSVANLYGYWGQGTQVTVSS | high polyreactivity
32 | QVQLVESGGGLVQAGGSLRLSCAASGLIFRYYAMGWYRQAPGKERELVAAITWRGGRTYYADSVKGRFTISRDNAKNTVYLQMNSLKPEDTAVYYCNKDGPYQVITYDYWGQGTQVTVSS | high polyreactivity
33 | QVQLVESGGGLVQAGGSLRLSCAASGLIFRYYSMAWYRQAPGKERELVAAISKSGDRTYYADSVKGRFTISRDNAKNTVYLEMNSLKPEATGVYYCAADSYPSPNFEDNYWGQGTQVTVSS | low polyreactivity
34 | QVQLVESGGGLVQAGGSLRLSCAASGLIFSAYDMGWYRQAPGKERELVASITSGGSTYYADSVKGRFTISRDNAKNTVYLQMNSLKPEDTAVYYCNADGGWYQYRWRYIEGEYWGQGTQVTLSS | low polyreactivity
35 | QVQLVESGGGLVQAGGSLRLSCAASGLIFSFYALGWYRQAPGKERELVAAINRSGGSTYYADSVKGRFTISRDNSKNTVYLQMNSLKPEDTAVYYCAARNAFGTYYYWGQGTQVTVSS | high polyreactivity
36 | QVQLVESGGGLVQAGGSLRLSCAASGLIFSFYDMGWYRQAPGKEREFVAAISGSGGSTYYADSVKGRFTISRDNEKNTVYLHMNILKPEDTAVYYCAAEYFTFYWKLDYWGQGTQVTVSS | high polyreactivity
37 | QVQLVESGGGLVQAGGSLRLSCAASGLIFSGYAMGWYRQAPGKERELVAAISRGGGRTSYADSVKGRFTISRDNAKNTVYLQMNSLKPEDTAVYYCAKDPRYLRYEHWGQGSQVTVSS | high polyreactivity
38 | QVQLVESGGGLVQAGGSLRLSCAASGLIFSGYDMGWYRQAPGKERELVAAITWSGGRTYADSVKGRFTISRDNAKNTVYLQMNSLKPEDTAVYYCNADAYIDYWPYTWDYDYWGQGTQVTVSS | high polyreactivity
39 | QVQLVESGGGLVQAGGSLRLSCAASGLIFSNYAMGWYRQAPGKERELVAAITRTATTKYADSVKGRFTISRDNAKNTVYLQMNSLKPEDSAVYYCAARSYHDRYNSWTDRYGFWGQGTQVTVSS | high polyreactivity
40 | QVQLVESGGGLVQAGGSLRLSCAASGLIFSPYAMGWYRQAPGKERELVAAISWRGGRTSYADSVKGRFTISRDNAKNTVYLQMNSLKPEDTAVYYCATRNSSKRRGYYYWGQGTQVTVSS | high polyreactivity
41 | QVQLVESGGGLVQAGGSLRLSCAASGLIFSRNAMGWYRQAPGKERELVAAISGGGGSTYYADSVKGRFTISRDNAKNNVYLQMHSLKQEATAVYDCAAKGYWWRTPWIATYDYWGQGTQVTVSS | high polyreactivity
42 | QVQLVESGGGLVQAGGSLRLSCAASGLIFSRYAMGWYRQAPGKERELVAAISTRGGSTYYADSVKGRFTISRDTAKNTVYLQMNSLKPEDTAVYYCNADIYGTFRVGQGYDYWGQGTQVTVSS | high polyreactivity
43 | QVQLVESGGGLVQAGGSLRLSCAASGLIFSRYAMGWYRQAPGKERELVAVISWSGGRTYYSDSVKGRFTISRDNAKNTVYLQMNSLQPEDTAVYYCAADYKSGGSRYDYWGQGTQVTVSS | high polyreactivity
